Experimental data taken from patent publication US20140371148A1.
No end group written: not given here.

target: Recombinant DPP-IV; assay: cell-based or functional assay

| Binder | DPP-IV IC50 |
| --- | --- |
| YAEGTFISDYSIALDKIHQQDFVNWLLAQKPSSGAPPPS-{Ado-Lys(N-ε-(2-(S)-cyano pyrrolidyl))} [[Leu^14] GIP(1-30)-exendin-4(31-39)-Ado-Lys-N-ε-(2-(S)-cyano pyrrolidyl)] | 82 nM |
| YAEGTFISDYSIAMDKIHQQDFVNWLLAQKPSSGAPPPS (modifications not checked) [N-(γ-L-Glu-(2-(S)-cyano pyrrolidyl)-Ado-Ado) GIP(1-30)-exendin-4(31-39)] | 110 nM |
| YAEGTFISDYSIAMDKIHQQDFVNWLLAQKPSSGAPPPS (modifications not checked) [[D-Ala^2] GIP(1-30)-exendin-4(31-39)-Ado-Lys-N-ε-(2-(S)-cyano pyrrolidyl)] | 85 nM |
